# Assay: label from the status in PepcDB records
row,Sequence,protein production
1,MGHHHHHHSHMALKDYALEKEKVKKFLQEFYQDDELGKKQFKYGNQLVRLAHREQVALYVDLDDVAEDDPELVDSICENARRYAKLFADAVQELLPQYKEREVVNKDVLDVYIEHRLMMEQRSRDPGMV,not failed
2,MILQSTSLFCKYINNCRYINREIVATLKASPQGLARIKQARSDRGWSVDDFRWLELASEILGVCWQENGVLAAGISEGTWKRFLAGKQAINAEAFKAYCQVLGLNWEEVQEGGRTKERKDTGTSRQEKFLSSSHPHTDWGEAPDVSIFYGRSEELDTVKRWVTQENCRLITLLGMGGIGKTTLSVKLAQEIINSEKIYLSQSPEYIIWRSLRNAPPVEDILAELIQFLSGQQETNLSNHLQGRISLLLKNLRSSRCLIILDNAESILQAGDRNGRYRAGCEGYGQFLQCIAETSHQSCLILTSREKPQGLAKYEGDSLPVRSLPLTGLQEQEGRELFNVKGKFAASCDQWQVLISRYGGNPLALKIVASSIRDFFDGDVSQFLEVSQQGTFIFDDIRDLLDQQFQRLTTLEREIMYWLAINREPVTLAELQADFVANIPPRELLESLSSLQRRSLIEKSAGGFTQQPVVMEYVSNHLIEQVCEEMREWGLVRSRGAEEQRSRGEKIHTQYKLNAALPLTALSTPLFTTHALIKAQAKDYVRESQISLILQPLINQLITEFGSLENISNCLVHILSRLRGKSPQETGYAGGNVLNLLHHAQVDLSGYDFSGLTVWQAYLQGVNLHDVDFANSDLSCCVFTETLGNILSAAFSPEGQLLATCDTDCHVRVWEVKSGKLLLICRGHSNWVRFVVFSPDGEILASCGADENVKLWSVRDGVCIKTLTGHEHEVFSVAFHPDGETLASASGDKTIKLWDIQDGTCLQTLTGHTDWVRCVAFSPDGNTLASSAADHTIKLWDVSQGKCLRTLKSHTGWVRSVAFSADGQTLASGSGDRTIKIWNYHTGECLKTYIGHTNSVYSIAYSPDSKILVSGSGDRTIKLWDCQTHICIKTLHGHTNEVCSVAFSPDGQTLACVSLDQSVRLWNCRTGQCLKAWYGNTDWALPVAFSPDRQILASGSNDKTVKLWDWQTGKYISSLEGHTDFIYGIAFSPDSQTLASASTDSSVRLWNISTGQCFQILLEHTDWVYAVVFHPQGKIIATGSADCTVKLWNISTGQCLKTLSEHSDKILGMAWSPDGQLLASASADQSVRLWDCCTGRCVGILRGHSNRVYSAIFSPNGEIIATCSTDQTVKIWDWQQGKCLKTLTGHTNWVFDIAFSPDGKILASASHDQTVRIWDVNTGKCHHICIGHTHLVSSVAFSPDGEVVASGSQDQTVRIWNVKTGECLQILRAKRLYEGMNITGVTGLTKATIFTLQALGALR,failed
3,MRDAYLMMVLMDALKEIFDLKEILKSPIRNKKVILFVSLVFILSLVLLYILVVNIKYFSYLGDIIFQNFQKHVENLKITLNEDNLHIILAIWKNNLTVCILNYILGIFSLFVIAVNSYILSYVLYKFGAESFIYLVLPHGIIEIPALILSASGGVLFNMGLVNFLINIKFGTKREVLYYIKESLKLLILSIILFIVAGIVEGTITFKIAKIMFS,failed
4,MDLIHEKVFVNRYHYDVRNHEWEKENGVPKTNVEVTFQLHHKDKEANNTSVVAVLQFMIVRDEFVISGIVSQMNHIQNRIVNNPKDFSQEEAEYLAAPLLDTLQRLTYEVTEIALDRPGINLEF,not failed
5,AEIYNKDGNKVDLYGKAVGLHYFSKGNGENSYGGNGDMTYARLGFKGETQINSDLTGYGQWEYNFQGNNSEGADAQTGNKTRLAFAGLKYADVGSFDYGRNYGVVYDALGYTDMLPEFGGDTAYSDDFFVGRVGGVATYRNSNFFGLVDGLNFAVQYLGKNERDTARRSNGDGVGGSISYEYEGFGIVGAYGAADRTNLQEAQPLGNGKKAEQWATGLKYDANNIYLAANYGETRNATPITNKFTNTSGFANKTQDVLLVAQYQFDFGLRPSIAYTKSKAKDVEGIGDVDLVNYFEVGATYYFNKNMSTYVDYIINQIDSDNKLGVGSDDTVAVGIVYQF,not failed
6,MADLALLVLTLLWGTTFALVKEALEIASPGVFLTARFGLAAVALLAAWALRPRAPLGDGFWRHGILLGLTMLVGFVLQTVALRHTTPARSGFITGLNVLVVPVVARWFLGRRVRPAFWVGVAFALAGLVMLTRPFTPGAVTEEVRFGDLLTLFCAVAYGLQVTFTSEWAPRHPLAPFVAVQVLVTLAGALVLAPLEGPRFDPAGAGHFALVVAFTGLVMTALAFFVMNWGQRHTTAVRAALIFSLEPAAAAVFSWLYYGEPLGPLDWAGGALMVLGVVAGEVGGVLEARAPRRARGERASTGPG,failed
7,MHEFLKAFKDAFPHTISILLGYLLMGMTFGMLLVQQGYDYKVALFMSLFIYAGAVQFVAITLLSAQASLMNVVIVSLLVNARQTCYALSMLDRFKNTKWRLPYLAHALTDETFALLNLYAPKEGVSEKDFIFSISLLNHSYWIFGSLVGSLVGSHFSFDTQGMEFVMTAIFIVLFMEQYKRTTNHKNAWLGIVIAVVCLALFGTEYFLLIALVLMVLALMLFRKQLEC,failed
8,MREYNNPSDFKSFHDFVASYMKTYSRRLEIGTFRHHKSCMRKFKEYCEGLQFHELTEDFLRDYLIYMKKTLCNADSTAQRNLSTIKIYVSAAIKKGYMENDPFKDFGVKRLEHHHHHH,not failed
9,MTSRTRDTDTDRATDTDTDRATATLDHAMARSQGLDTLLRDLTDRAVVQVPGAVACSVTVRRADRLMTLAGSTGLPSGLDLRQYENGSGPCVDAAESGDAQYCADLAEETRWPAYTEYALATGVRCVLALPLPIEGETGAALNLYGLVPGSLVQGLDAARAFAERAADAVNEALRIERRQASAADVRTALLSRSVIDQAVGMLMARERIDAHRALERLRRASQDRNVKLRDLCAQVVARASGGASHRGQ,failed
10,MNIFKKIKNLSAEFKQNWFQYLILFTSISILNQFVFIPLFRYITTFVLQAGAIPFISYSNLVIILSEHPFVVFFLLIELALLLFVIYSQFALIILFIKNNFALKASISEFGQCLRHFRLGSLLLLAIYFLLVIPFANVVFRTPLLAKIKIPQFIIDYMTRSGILLAILIIFYLVIFVLAFRFLLTLPIMVIYKTTTREAMKKSAFLMKKNWRKVIGFFVPLGILAIVIMAINVGGAYLLQLIWDTFPGKFALIMATINLTLFQIISEVFLIWVSAVSLYFLVKLVTKNNNEIKEKVTNNKIILITIISIWSLAITGNIIENVFYLAGLDDHVPVTISHRGVNDKNGVQNTIESLKKTAKLKPDYVEIDVHETKDNQFVIMHDENLKKLTGKDKRPKELTLNQLTKLIAKEDGYKGKVVSLDQYMQAAQKLKQKLLIEIKTTPNDSNEFLVKFNKKYGHEILKNHYQLQSLDYRVVTKMQQLNPKIETLYIQPYNLIYPQSVADGYSMEYSTLSSDFIWQAHLQNHVVYAWTVNNKSEMKKMMYEHVDGIITDNISMLNTAIKEFQSRQSYANRILNYMMAFPILD,failed
11,MIEKVYEFKRDAKTKVVEKLVNTEHVQINHIVLPRGEQMPKHYSNSYVHLIIIKGEMTLTLEDQEPHNYKEGNIVYVPFNVKMLIQNINSDILEFFVVKAPHPKKLNAPEDPIKCE,not failed
12,MHTTFTFHLYPWILKYLKGGEGNFKYLHQENPKQEITDSSDKMSFWKDRMLIIPAVDIKDGKCVQLVQGKPGTEQVVLDDPAGVAGRWESLGAETIHVVDLDGALGLEKNTGILKEITERVSVPLQIGGGIRSREYAGKLLDMGFERVILGTMAIENPAIVEELAGEYGSERIMVSLDSRDSRVVIRGWTEKVPFTAEEMARKFQERGAGSILFTNVDFEGLLSGFDLKPVSELVEAVEIPVIYSGGVSSLNDLRMLQGTGVMGVVIGSAIYRGLIDLTEALKYQDLK,failed
13,MRMKPLKRSLPLLLALLLAACAGVKPPAAQPAQPETKPAAESGPDEAKLPKVALSPEILYGVLAGEIAARRGAAGSAGLTYLDLARETRDPRMAQRAAEFCLLSGQLKPATEALQLWIELDPESLPAREQLFITLMRGGKLAESKPLIEELLRLEPQRAPAIFVQLARLSARQDGGSAPSYRLVQELADRYPDLPEARFAVLAAAADNNDQAAVDRELNRLAGIAPKWDLPVAWQVDRLRRKDINEAADFLQRELARRPDAGLELQIAYPRLLVGAKRFPEARSAFEALLKTHPDNPDLLYATGLLAYQMRDLKTADDRLQRALARQYPEQDFVRYTLGQIAEDDRDAERAGNWYRQVGPGQQYLPAQSRLAMLEAADGRLDEALSRLSGLGGTDQEKVSLALLQSQLAREAKQPRRAYDLLTQALQRQPRSSELLYERSLVSDMLGNAGNAERDLRLILKDKPGDAQALNALGYTLANRTSRYQEAYGYIEKALKAEPDNPVIQDSMGWVQYKLGRLDAARKALEKAYAAMQDPEVGAHLGEVLWKQGRRDEALAVWRKELAQHPGHEVIAETMRRLGAKP,failed
14,MATESSESEEEGKISGGNYKLIIDDDLREMGKNAAWSVSSYGLQPHLINIQFQKKVKLQLVVLYVDFKLDESYTPSKISIRAGDGFHNLKEIKSVELVKPTGWVCLSLSGTDPRETFCQESR,failed
15,MVEADRPGKLFIGGLNTETNEKALEAVFGKYGRIVEVLLMKDRETNKSRGFAFVTFESPADAKDAARDMNGKSLDGKAIKVEQATKPSFE,failed
16,MKLLLVGEVRDGRVTAETAELFGFAACFSAEVSMVLAGSTDDLPSFEGKLYRADGVNAFDLACHKRLVLAAVEREQPDAVVFLHSSHGWELAPRVAFAMQSAQVSGVVGLDDGGYVVESCNGKMRRTVKPLTDRVVLTLQLGAFDAPAMAGIPEVTALDVEPDSTIEFLDCVQPERGIDLTRAGVIVSAGRGVGSAERVELVRALADALGGEVGASRPVVDAGWLERARQVGSSGQSVSPALYVACGISGAIQHLAGMKGSGFVLAINTDRDTPITSVADVLAVADVAEFLSALTAAIRARR,failed
17,MNTSHVRVVTHMCGFLVWLYSLSMLPPMVVALFYKEKSLFVFFITFVIFFCIGGGAWYTTKKSGIQLRTRDGFIIIVMFWILFSVISAFPLWIDSELNLTFIDALFEGVSGITTTGATVIDDVSSLPRAYLYYRSQLNFIGGLGVIVLAVAVLPLLGIGGAKLYQSEMPGPFKDDKLTPRLADTSRTLWITYSLLGIACIVCYRLAGMPLFDAICHGISTVSLGGFSTHSESIGYFNNYLVELVAGSFSLLSAFNFTLWYIVISRKTIKPLIRDIELRFFLLIALGVIIVTSFQVWHIGMYDLHGSFIHSFFLASSMLTDNGLATQDYASWPTHTIVFLLLSSFFGGCIGSTCGGIKSLRFLILFKQSKHEINQLSHPRALLSVNVGGKIVTDRVMRSVWSFFFLYTLFTVFFILVLNGMGYDFLTSFATVAACINNMGLGFGATASSFGVLNDIAKCLMCIAMILGRLEIYPVIILFSGFFWRS,failed
18,MAAFPNLNSGSGLKKLDEHLLTRSYITGYQASKDDITVFTALSKPPTSEFVNVSRWFNHIDALLRISGVSAEGSGVIVEGSSPITEEAVATPPAADSKDTAAEEEDDDDVDLFGEETEEEKKAAEERAASVKASTKKKESGKSSVLMDIKPWDDETDMKKLEEAVRSIQMEGLFWGASKLVPVGYGIKKLHIMCTIVDDLVSIDTMIEEQLTVEPINEYVQSCDIVAFNKI,failed
19,MMAKIDVELKKLHQILVDRDYFYQVPDYQRPYVWDKDHLGALIDDLVGSYTNNREDEYFCGSIVIVENQKDKRWDVVDGQQRLTSFIILACTILRLYKHSLGQESKDFIEDSIYDRYDKEKERLKFLTAQNYNSIFENTVLNHLEFEDNIKKSELNKKFEENTYLRNAYYFKELLNESVENGSISDIDDFVKWFYEHIVLTRIICFEQDSAMQIFQVLNDRGQPLSPIDILKSSLMQEIKQDSEKRKDFITTWDKLVEACKSVEGVDIDLEDFFNMYLEYADPSTSKKRADKGLKKVFKDSKKDACGFIYEISEFMKAYTALLKKQDRYVYLLRYLPSRYWASILTTALYVKYPDFDALKKLLVSYYYQTWIAGGTITRIKQTSINIIKNVKSNKSVETIKELILNSIDSYNTFDQYLYNLWDSSSVYHSKWVRPVLALANYFMADEEKPHFIAMDAETQVEHILPQTPKRGSQWNADFDKEKREEWVNNIANLTLLKRKKNAHALNGDFDEKRKIYGGKDTSKVISCYDITKELYSNYRKWNEKSLQERYKSLYNTITPVLHIEGQEDDFEDDFDLE,failed

# — a protein production outcome set (Wang et al. 2014)
